Ends that are not written are not given here. * marks the point of attachment. 5FAM = O=C1OC2(c3ccc(O)cc3Oc3cc(O)ccc32)c2ccc(C(=O)*)cc21
T1: RXRα LBD (residues 227-462), the LBD part of the crystallised fusion chain (human, UniProt P19793 227-462)
T1 sequence (looked up): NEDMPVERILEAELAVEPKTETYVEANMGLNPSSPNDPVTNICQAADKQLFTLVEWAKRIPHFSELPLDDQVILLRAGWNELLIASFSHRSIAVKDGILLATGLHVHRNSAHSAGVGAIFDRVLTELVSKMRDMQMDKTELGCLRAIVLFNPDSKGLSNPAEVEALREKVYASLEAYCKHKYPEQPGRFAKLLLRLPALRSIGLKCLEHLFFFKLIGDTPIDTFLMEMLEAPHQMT

T2: PXR LBD (residues 130-434), the LBD part of the crystallised fusion chain (human, UniProt O75469 130-434)
T2 sequence (looked up): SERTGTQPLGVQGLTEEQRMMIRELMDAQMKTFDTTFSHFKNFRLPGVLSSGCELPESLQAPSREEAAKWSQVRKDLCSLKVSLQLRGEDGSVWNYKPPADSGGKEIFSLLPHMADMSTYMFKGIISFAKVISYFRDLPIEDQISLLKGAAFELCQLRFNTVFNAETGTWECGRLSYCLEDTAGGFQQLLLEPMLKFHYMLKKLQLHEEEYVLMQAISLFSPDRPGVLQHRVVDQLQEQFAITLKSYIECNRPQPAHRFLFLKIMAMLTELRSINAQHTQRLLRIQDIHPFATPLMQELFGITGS

T3: wild-type PXR LBD without the fused coactivator peptide (human, UniProt O75469 130-434)
T3 sequence (looked up): T2 sequence (looked up)

T4: wild-type RXRα LBD without the fused coactivator peptide (human, UniProt P19793 227-462)
T4 sequence (looked up): T1 sequence (looked up)

B1: human SRC-1 coactivator fragment (residues 678-700), as it stands fused to the C-termini of the crystallised LBDs (peptide)
peptide: SSHSSLTERHKILHRLLQEGSPS
B2: fluorescein labeled SRC-1 peptide (5-FAM-[residues removed]), residues 676-700 (peptide)
peptide: 5FAM-CPSSHSSLTERHKILHRLLQEGSPS
B3: PXR/RXRα LBD heterotetramer complex of unfused PXR LBD with SRC-1-fused RXRα LBD (complex, human)
chain 1: T2 sequence (looked up)
chain 2: NEDMPVERILEAELAVEPKTETYVEANMGLNPSSPNDPVTNICQAADKQLFTLVEWAKRIPHFSELPLDDQVILLRAGWNELLIASFSHRSIAVKDGILLATGLHVHRNSAHSAGVGAIFDRVLTELVSKMRDMQMDKTELGCLRAIVLFNPDSKGLSNPAEVEALREKVYASLEAYCKHKYPEQPGRFAKLLLRLPALRSIGLKCLEHLFFFKLIGDTPIDTFLMEMLEAPHQMTGGSGGSSHSSLTERHKILHRLLQEGSPS
B4: PXR/RXRα LBD heterotetramer complex of SRC-1 fused PXR LBD with unfused RXRα LBD (complex, human)
chain 1: T1 sequence (looked up)
chain 2: SERTGTQPLGVQGLTEEQRMMIRELMDAQMKTFDTTFSHFKNFRLPGVLSSGCELPESLQAPSREEAAKWSQVRKDLCSLKVSLQLRGEDGSVWNYKPPADSGGKEIFSLLPHMADMSTYMFKGIISFAKVISYFRDLPIEDQISLLKGAAFELCQLRFNTVFNAETGTWECGRLSYCLEDTAGGFQQLLLEPMLKFHYMLKKLQLHEEEYVLMQAISLFSPDRPGVLQHRVVDQLQEQFAITLKSYIECNRPQPAHRFLFLKIMAMLTELRSINAQHTQRLLRIQDIHPFATPLMQELFGITGSGGSGGSSHSSLTERHKILHRLLQEGSPS

Assays:
[1] = target: T1, RXRα LBD (residues 227-462), the LBD …; test: crystal structure
[2] = target: T2, PXR LBD (residues 130-434), the LBD …; test: crystal structure
[3] = target: T3, wild-type PXR LBD without the fused …; test: fluorescence polarisation
[4] = target: T4, wild-type RXRα LBD without the fused …; test: fluorescence polarisation
[5] = target: B2; test: fluorescence polarisation

B1
binding result [1]: binds
binding result [2]: binds

B2
Kd [3]: 1.18 ± 0.0922 µM
Kd [4]: 1.56 ± 0.198 µM

B3
Kd [5]: 0.588 ± 0.0297 µM

B4
Kd [5]: 0.778 ± 0.0888 µM

Reference: article PMC3699901 (Journal of molecular biology, 2013)
